Reference: the DeepSol protein solubility set

test: soluble on expression in E. coli; label from the status in PepcDB or PDB records

Row | Sequence | soluble on expression in E. coli
1 | MDLEYAMNPGGRRRFQNKDQATYGVFAPDSDDDDDEQGTSRGPYKKRSKISAPMSFVSGGIQQGNKIDKDDPASLNLNLGGEKKPKEDDEGSIQIDFDKRTKKAPKQNGAQVFAGMRSSANHGAADINQFGSWMRGDGNSNKIMKMMQAMGYKPGEGLGAQGQGIVEPVQAQLRKGRGAVGAYGKESTATGPKFGESAADAQKRMAQEGTSSRPTNDDQEKSGLKIKGSWKKSQTVKTKYRTIEDVMEEGMSASRPASHQQSQQYSNIKVIDMTGKQQKIYSGYDSFSMKTRSEYDTVDDEERTVFDVPELIHNLNLLVDLTEEGIRRSNQQLISLKDQTTALEYDLQQVQKSLGTEEQEAQHIKDVYELIDGFSSNRSPSMEECQELFRRLRSEFPHEYELYSLETVAIPTVLPLIQKYFVAWKPLEDKNYGCELISTWRDILDDSKNGRKMTFGHNKTKGDEIRAYDRIIWEGILPSIRRACLQWDPSTQMHEMIELVEQWIPLLSAWITENILEQLVVPKIAERVNQWDPMTDEIPIHEWLVPWLVLLGDRIQTVMPPIRQKLSKALKLWDPMDRSALETLRPWQNVWSAATFSAFIAQNIVPKLGVALDTMELNPTMNPEYPEWTACMEWLEFTHPDAIANIVTKYFFPRFYNCLCLWLDSPGVDYNEVKRWYGSWKARIPQVLVNYPTVNENLRRSMIAIGRSLQGEKVGGLQATPIAPMAPPPPMAPHFTQAAPVQKLSLKEIIEYTAGKNGFTYHPQKDRYKDGRQVFWFGALSIYLDSEMVYVMDPIEFVWRPSGLNELIQMAQGAQG | not soluble
2 | MDLGIKGKKVIVTAASKGIGLAIAKRFLEEGAKVIISSNDESNLMKAYNKLKEIHSENVSYIKADLMNPHEVKSLVHEGYRKLGGLDVLAYVTGSPKPGNLFSLSDKDWMDAFNLLLLSAVVAVREAGQLMQSGGRIILSTSTTLRQPIDNLDLSNVVRLSLAGLIKVASRELGPKGILVNGVMPGWTKTERLLQIIRDRAIREGKSEDEVLKSIVADVPLGRAGEPEEIANVVLFLASNLSTYVTGALIPVDGGSIKGVF | not soluble
3 | MDLKFKSQETGRSIGFASHLRRHGATLANHLNYTRNEFISTLADCHQNLGIEGRASSPEKQFDEDGDEIEATATKIEWQPLKCPKCHRNSENTRKLLEHLVEDHGRPQDKAWFEQFDTIGTDLKKVFDKAIRIQAENSVVKKKFQNSNDLLVCPTDSPLAPFLLMRHLQVNFQEVSQTLTEGIVLKLQIASTSYTIIFSFHKVDKARRRIKREMARKSLERRLRVLELRCARTWVPDDDVVFKKKRTSEENKALIQALKLPATSSHDDIVLKINEMKTQHDEMVK | not soluble
4 | MDLRSALEKTNIIKSYKLHFLIRYTTSRFEVKEPFLAYLHMARQKDKLLPKCITPPNKKADPFTNDVSSYFTHTHTHTPCSPSLVYTYVNTTEKSPSKSPKHKNILPFNFTK | not soluble
5 | MDLSTIKVFEQKLELHREMPMKVVKKELHFSTKGEIDLVDITREVELFVAESGISKGQVLIFVPGATGAVVAIEHEEGLLEDFKKILKEIVPKEKPYLHNRFDDNAHSHIRATLLGPSLVFPIVDGELVRGTWQQIFFVELDTRPRKRRILLQAIGE | soluble
6 | MDMQVVPKIGISSVVHSKHIDPGSIDVVGNDIALFDTESVISLYNGPSKLEVVSIGLCLEGSTRFNISLREFELIPGRMVIALPNQIIEHRQFSSNFRGIFFAVSKSLLESLPKVGNVLSFFFFLKDYPCFDLNLHEQEMIKEYHAFIRKRLKNKDDRYRREVVMGLMQGFFFELCNIFNSYAPDASAVVKSKSRKEYIFERFYESLVQSYQSERSVKFYADQLCLTPKHLSGVVKEVSGKTVGEWIDELVILEAKALLNSSSMNIQEIADRLNFANQSFFGKYFKHYTGMSPKEYRKSR | not soluble
7 | MDPLLTVLKERMRACQRRVSDRPRRQVVAIEWIDPPMASGNWIPELIALAGGENMLGTAGKHSPYIEWSTLLAIDPEVILVMPCGFDLERTRQELDQALQTYPQWQQLRALQTGQLYILDGNAYFNRPGPRLVDSLEILVEILHPCPLEHHHHHH | soluble
8 | MDQFSEPEETQVEQVENPDRNEAGYEVCNQSGENLSVAIAYFDTSIDSYRSEGWWNLDQSKCQFFPNLLDSVDEVYVFAESDQTLWSGDFPFCMQEDAFEYPDANRDRCPSPAYSKGFLKVEVGDAKTWTTLEHHHHHH | soluble
9 | MDQKREALVGPITSSPASILELSIFYEFLKAQWCAFTIGSSEPPISPRQLNLLSLLIGPSNSDQEIPRDTVAVSWVYVGFEFGESCEQFGATDEQLRGHFEYQMICTNVQCIYFVEDGKKRRMAGVTWYLRNDEKSKNHEDYNMIAIYETIREKRFEEVQKIRKLEKEEALRRGGWLGEPTDEYTSTIFSHLKLLTLKDGRLAVFACNADGEEEKFAFNERTERYEVLEDVVEVEDRPSNYLLRII | not soluble
10 | MDQSIRHLLGNLSLFTPPEEAAVYAEQHAVNKNEPLYFVVFPQADTALSELLVAGYQKLLENNFWGLTNSTQEAKDLMSRYGNTGLELYAHSRGSMTLGNMLYSFQQQGVHGIANENTTINLYGPAFNVLVASDLLGYVSDGKQTTVGFDGHRYDFVSRWIGGNSYTYKTIPSDSNAWKEWWRMFTDPDNPHTCLGDANAICNTLYGSSHLKQKP | not soluble
11 | MDQTNENVKESEPPSDDGPPILSVLCSLVDEIGSLRNENLRLKTRLVPAPRNTKNVVQRMSAMLEHRGSSIFPKLRRANRSSESMEIRNGARERLSTPPRKETSNSMNTSSDVSYGRNRAPPIVRPEQSDSEIDEQIFDDDDHRSRDTTRRCDSVNVPRHQNDNSTSACTSPSSASSSRDPSETMTTSRSSFLDLLGLRRRSTHIPQPTSYSKTTALKQTNKKRRRKISGNDNDSESSGMYANMEDHCSRVPSKPPRPASYYRRDDSEDSDCLRQMRQRKTASSLNVNNYEHRHEDMYRVSRETQWQHEKDNLMAEIEEMKMRNNRLVEQLREKSQQQSKLQCQLHKAEMQVNALSRRCALSEALDRLTLDERMEKSATSWIKKIEERLRIFENQMQNAKLEAATAHQMALNSSCHEKDAHQNCLEKLESLQREHMRVIHSSLVEIGVDEINMKRRLENLPTYEALYAFTHSVVRRLNEARWAVIEKTNETSRAQIDLIVSQSSHLVSLAQLERLKIMQTLRGKRQKRPSSFHGHSVSERNIRQDLSFYLPLKLHGSRVENSRRTIKKNAIVGNDRNIEEEFLKLFSYSKDFSMELAAPPERRANTRIETMMREMNGNGRPIIRRGPSGVSNSNIMRDRVTREVPSNRRPISLVETEERRIRRNEETKRSIKFMKTNSIDHGYNAYEPPPASRTTTTTIVASTQDISNNVHSPHGTPVFTRRIIIPVKGNAYDIVPEGTTANIVPANIPQMGRVRKLERAFSAESRNTVDSLHDREEQRRERRDHVEGGVERRQSKIQRSQPVSRLKQPSVQLSKFRTIENNGANREPPSSSILRPRTLEPQTSIPRITTSPPESRIPTPSSRHGNEKRGWLERLKGIGKL | not soluble
12 | MDQTQNTIAGIGEINGSIKTEINAIATVDDSNEKLNQIINSNQKILELLHQLKLTVSSFTPASQLHLLQRLNSLVMELDNMAKLSDKCNIQVPIEVLNLIDDGKNPDEFTKDVLNKNCIAKNQVTKGKSDAFKGLRKHLLEELEQAFPDEVDRYRDIRASYAAEAKRLAQTQSVLPNGDAKVKSEL | soluble
13 | MDREALLERLKEPFDLLVLGGGATGAGVLWEATLRGLKAALVEAGDFASGTSSRSTKLLHGGVRYLELAFKRLDRRQLKLVVDALHERKVVMDLAPHLAKPLTLVTPLFRPLEIPYYTLGLKLYDLLAGKRRLAPSRYLPPEEVARLFPDLPKTLGGVAYQDGQFADFRLNLALVLSALERGAVALNHAEATALLLEGGRVRGAVVRDGLSGKEVEVRAKAVVNATGSLADRVRRLLDPHLPPLLTASSGVHLVLDYPLEAGLLVPKTRDGRVLFLLPYRGMALLGTTDLPAEPASCPLPREEEVAYLLEEIRPYLGDVSGRVRAVWSGLRPLVGKGETKLLVRDHYIEERRGLYTLVGGKWTTFRLMALDLVERLAKDLGLALPPSKSHATPLLGAGPRPPLPLPEEAARRLWETYGTLAPEVLALGDRPLLPGLPYLEGEVVWAVRRELARKPLDVLARRMGLAFLDQEKTREALPKVVELMAGLLGWDERERALRLKEAEEGLPGLC | soluble
